Test results from publication PMC7939140.

Biological target: BG505SOSIP.664 gp140 NFL (native flexible linker version of wild type) (HIV-1 (BG505 isolate, clade A))
Assay: native gel or EMSA

Substance “BG505SOSIP.664 gp140 NFL (native flexible linker version of wild type) (natural protein)” has a stoichiometry N of 3.
